Data reported in the supplement of paper PMC10065799, “High-throughput profiling of sequence recognition by tyrosine kinases and SH2 domains using bacterial peptide display” (eLife, 2023).

Target: FGFR3 (UniProt P22607)
Assay: phosphorylation enrichment, bacterial display (enrichment ratio); higher = better substrate or ligand; peptides without Tyr show the background
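Also: 11-residue human phosphosite peptides and single-mutation variants displayed on the E. coli surface, counted by deep sequencing, each peptide's frequency after selection divided by its frequency in the unselected input library; frequency after pTyr selection over input frequency; kinase dosed for 20-30% of maximal phosphorylation in three min.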

FGFR3, sequence (P22607 whole entry, looked up): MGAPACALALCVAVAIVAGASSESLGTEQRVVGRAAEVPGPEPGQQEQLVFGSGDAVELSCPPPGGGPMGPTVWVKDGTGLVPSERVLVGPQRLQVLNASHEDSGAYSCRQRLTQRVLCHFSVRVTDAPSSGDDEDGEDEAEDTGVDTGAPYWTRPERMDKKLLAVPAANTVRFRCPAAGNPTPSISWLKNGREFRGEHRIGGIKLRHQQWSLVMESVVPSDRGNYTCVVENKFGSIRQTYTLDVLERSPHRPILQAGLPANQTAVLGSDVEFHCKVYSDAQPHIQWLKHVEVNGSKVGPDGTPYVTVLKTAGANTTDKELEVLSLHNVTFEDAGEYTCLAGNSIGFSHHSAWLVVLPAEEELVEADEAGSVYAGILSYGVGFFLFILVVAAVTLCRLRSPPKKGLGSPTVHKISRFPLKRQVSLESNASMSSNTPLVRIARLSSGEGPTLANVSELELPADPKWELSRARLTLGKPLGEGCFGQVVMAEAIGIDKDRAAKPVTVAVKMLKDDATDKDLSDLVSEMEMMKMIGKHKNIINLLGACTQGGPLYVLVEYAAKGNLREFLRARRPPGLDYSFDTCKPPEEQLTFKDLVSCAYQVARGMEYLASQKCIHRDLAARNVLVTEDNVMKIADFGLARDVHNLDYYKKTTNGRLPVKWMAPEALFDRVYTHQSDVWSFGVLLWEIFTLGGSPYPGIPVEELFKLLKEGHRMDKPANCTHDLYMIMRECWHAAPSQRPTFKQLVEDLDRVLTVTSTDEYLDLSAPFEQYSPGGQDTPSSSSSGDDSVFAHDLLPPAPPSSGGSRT

AKLKDYFIFNK [CCDC42_Y149_YF] was tested. Which phosphorylation enrichment did it give?
The phosphorylation enrichment was 1.

YTGDIYSSSNL [LZTR1_Y141_N143S] was tested. Which phosphorylation enrichment did it give?
The phosphorylation enrichment was 0.626.

With VIEQRYNETWL [SLC2A4_Y56_S55R] as the sequence, how does the phosphorylation enrichment read?
Its phosphorylation enrichment is 0.553.

How did the phosphorylation enrichment turn out when GIVEDYRPRFF [ACVRL1_Y421_P424R_YF] was run?
The phosphorylation enrichment was 0.655.

How did the phosphorylation enrichment turn out when SILAVYSKDIY [PANK2_Y400_N404I] was run?
The phosphorylation enrichment was 0.713.

For KCCCIYEKPRS [PPP1R11_Y64_A69S], which phosphorylation enrichment is on record?
The phosphorylation enrichment was 0.667.

With YEEDSYVKRSQ [RET_Y905] as the sequence, how does the phosphorylation enrichment read?
Its phosphorylation enrichment is 0.775.

With SAPDSYIRIGN [SLC38A4_Y27_G29R] as the sequence, how does the phosphorylation enrichment read?
The phosphorylation enrichment was 0.436.

For LFSDHYSPSGR [TMPRSS12_Y23_YF], which phosphorylation enrichment is on record?
The phosphorylation enrichment was 0.459.

How did the phosphorylation enrichment turn out when CRAVKYLQMVG [AVPR2_Y117] was run?
Its phosphorylation enrichment is 0.574.

With LAIERYVVVSK [RHO_Y136_C140S] as the sequence, how does the phosphorylation enrichment read?
Its phosphorylation enrichment is 0.701.

For NFFEFYVDDPL [GCHFR_Y48_P53L_YF], which phosphorylation enrichment is on record?
The phosphorylation enrichment was 0.874.

Which phosphorylation enrichment does the source give for MFCAGYDTKQE [F10_Y407] here?
The phosphorylation enrichment was 0.877.

Which phosphorylation enrichment does the source give for FSGQVYRQRRK [TH_Y230_D227G] here?
Its phosphorylation enrichment is 0.64.

IGLHAYGDQFR [IDH1_Y135_R132L_YF] was tested. Which phosphorylation enrichment did it give?
The phosphorylation enrichment was 0.594.

MIHSAYALGGL [CPS1_Y590_R587H] was tested. Which phosphorylation enrichment did it give?
The phosphorylation enrichment was 0.471.

With FGVVGYLAIMF [RNF175_Y155] as the sequence, how does the phosphorylation enrichment read?
The phosphorylation enrichment was 0.819.

With NVGGKYSFLKV [GRM3_Y478_YF] as the sequence, how does the phosphorylation enrichment read?
Its phosphorylation enrichment is 0.434.

Which phosphorylation enrichment does the source give for DASAVYLRDFQ [PLCG2_Y242_H244R] here?
The phosphorylation enrichment was 0.58.

How did the phosphorylation enrichment turn out when DFPIGYPSFLA [TBCK_Y153_YF] was run?
The phosphorylation enrichment was 0.631.

Which phosphorylation enrichment does the source give for KLSFSYGWALQ [ALDOB_Y302_R304W] here?
Its phosphorylation enrichment is 0.936.

For RIGRKYKRVRF [F8_Y442_K444R], which phosphorylation enrichment is on record?
The phosphorylation enrichment was 1.55.

Target: FGFR1 (UniProt P11362)
Assay: as above

FGFR1, sequence (P11362 whole entry, looked up): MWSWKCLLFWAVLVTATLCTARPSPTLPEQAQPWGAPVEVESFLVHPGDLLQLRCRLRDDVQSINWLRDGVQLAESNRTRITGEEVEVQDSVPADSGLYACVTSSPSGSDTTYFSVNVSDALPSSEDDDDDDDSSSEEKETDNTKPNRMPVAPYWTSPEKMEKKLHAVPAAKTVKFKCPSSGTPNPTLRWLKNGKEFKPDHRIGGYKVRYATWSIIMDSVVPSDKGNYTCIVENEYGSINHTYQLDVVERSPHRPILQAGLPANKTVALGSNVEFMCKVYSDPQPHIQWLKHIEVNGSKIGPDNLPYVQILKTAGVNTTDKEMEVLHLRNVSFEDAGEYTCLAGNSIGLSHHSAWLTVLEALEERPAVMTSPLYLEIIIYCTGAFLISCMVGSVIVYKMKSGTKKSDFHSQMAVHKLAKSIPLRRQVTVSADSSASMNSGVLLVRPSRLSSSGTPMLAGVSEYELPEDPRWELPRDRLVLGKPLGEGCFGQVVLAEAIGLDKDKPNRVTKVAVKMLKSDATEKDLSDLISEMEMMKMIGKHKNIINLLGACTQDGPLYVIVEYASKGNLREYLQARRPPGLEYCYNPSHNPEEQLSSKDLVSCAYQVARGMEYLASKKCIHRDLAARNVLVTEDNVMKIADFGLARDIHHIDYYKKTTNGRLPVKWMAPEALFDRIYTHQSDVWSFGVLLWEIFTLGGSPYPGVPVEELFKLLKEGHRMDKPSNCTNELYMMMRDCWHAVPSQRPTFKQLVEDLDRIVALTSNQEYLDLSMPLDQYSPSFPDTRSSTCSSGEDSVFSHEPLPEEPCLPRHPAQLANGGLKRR

For AKLKDYFIFNK [CCDC42_Y149_YF], which phosphorylation enrichment is on record?
The phosphorylation enrichment was 1.49.

For YTGDIYSSSNL [LZTR1_Y141_N143S], which phosphorylation enrichment is on record?
Its phosphorylation enrichment is 0.613.

How did the phosphorylation enrichment turn out when VIEQRYNETWL [SLC2A4_Y56_S55R] was run?
The phosphorylation enrichment was 0.516.

For GIVEDYRPRFF [ACVRL1_Y421_P424R_YF], which phosphorylation enrichment is on record?
The phosphorylation enrichment was 0.467.

Which phosphorylation enrichment does the source give for SILAVYSKDIY [PANK2_Y400_N404I] here?
The phosphorylation enrichment was 0.518.

How did the phosphorylation enrichment turn out when KCCCIYEKPRS [PPP1R11_Y64_A69S] was run?
Its phosphorylation enrichment is 0.456.

YEEDSYVKRSQ [RET_Y905] was tested. Which phosphorylation enrichment did it give?
Its phosphorylation enrichment is 0.495.

How did the phosphorylation enrichment turn out when SAPDSYIRIGN [SLC38A4_Y27_G29R] was run?
Its phosphorylation enrichment is 0.424.

Which phosphorylation enrichment does the source give for LFSDHYSPSGR [TMPRSS12_Y23_YF] here?
The phosphorylation enrichment was 0.446.

With CRAVKYLQMVG [AVPR2_Y117] as the sequence, how does the phosphorylation enrichment read?
The phosphorylation enrichment was 0.499.

With LAIERYVVVSK [RHO_Y136_C140S] as the sequence, how does the phosphorylation enrichment read?
Its phosphorylation enrichment is 0.843.

For NFFEFYVDDPL [GCHFR_Y48_P53L_YF], which phosphorylation enrichment is on record?
Its phosphorylation enrichment is 0.501.

How did the phosphorylation enrichment turn out when MFCAGYDTKQE [F10_Y407] was run?
The phosphorylation enrichment was 0.518.

For FSGQVYRQRRK [TH_Y230_D227G], which phosphorylation enrichment is on record?
Its phosphorylation enrichment is 0.546.

With IGLHAYGDQFR [IDH1_Y135_R132L_YF] as the sequence, how does the phosphorylation enrichment read?
Its phosphorylation enrichment is 0.423.

For MIHSAYALGGL [CPS1_Y590_R587H], which phosphorylation enrichment is on record?
Its phosphorylation enrichment is 0.388.

Which phosphorylation enrichment does the source give for FGVVGYLAIMF [RNF175_Y155] here?
Its phosphorylation enrichment is 0.474.

For NVGGKYSFLKV [GRM3_Y478_YF], which phosphorylation enrichment is on record?
The phosphorylation enrichment was 0.369.

Which phosphorylation enrichment does the source give for DASAVYLRDFQ [PLCG2_Y242_H244R] here?
The phosphorylation enrichment was 0.425.

Which phosphorylation enrichment does the source give for DFPIGYPSFLA [TBCK_Y153_YF] here?
Its phosphorylation enrichment is 0.578.

KLSFSYGWALQ [ALDOB_Y302_R304W] was tested. Which phosphorylation enrichment did it give?
Its phosphorylation enrichment is 0.676.

For RIGRKYKRVRF [F8_Y442_K444R], which phosphorylation enrichment is on record?
The phosphorylation enrichment was 1.13.

Tested on: AncSZ
Assay: as above

With AKLKDYFIFNK [CCDC42_Y149_YF] as the sequence, how does the phosphorylation enrichment read?
The phosphorylation enrichment was 0.82.

How did the phosphorylation enrichment turn out when YTGDIYSSSNL [LZTR1_Y141_N143S] was run?
Its phosphorylation enrichment is 0.917.

Which phosphorylation enrichment does the source give for VIEQRYNETWL [SLC2A4_Y56_S55R] here?
Its phosphorylation enrichment is 0.809.

For GIVEDYRPRFF [ACVRL1_Y421_P424R_YF], which phosphorylation enrichment is on record?
The phosphorylation enrichment was 0.811.

For SILAVYSKDIY [PANK2_Y400_N404I], which phosphorylation enrichment is on record?
The phosphorylation enrichment was 1.07.

With KCCCIYEKPRS [PPP1R11_Y64_A69S] as the sequence, how does the phosphorylation enrichment read?
The phosphorylation enrichment was 1.86.

YEEDSYVKRSQ [RET_Y905] was tested. Which phosphorylation enrichment did it give?
The phosphorylation enrichment was 1.17.

How did the phosphorylation enrichment turn out when SAPDSYIRIGN [SLC38A4_Y27_G29R] was run?
The phosphorylation enrichment was 0.594.

LFSDHYSPSGR [TMPRSS12_Y23_YF] was tested. Which phosphorylation enrichment did it give?
The phosphorylation enrichment was 0.654.

Which phosphorylation enrichment does the source give for CRAVKYLQMVG [AVPR2_Y117] here?
The phosphorylation enrichment was 0.711.

Which phosphorylation enrichment does the source give for LAIERYVVVSK [RHO_Y136_C140S] here?
Its phosphorylation enrichment is 0.86.

For NFFEFYVDDPL [GCHFR_Y48_P53L_YF], which phosphorylation enrichment is on record?
Its phosphorylation enrichment is 1.09.

Which phosphorylation enrichment does the source give for MFCAGYDTKQE [F10_Y407] here?
Its phosphorylation enrichment is 1.11.

How did the phosphorylation enrichment turn out when FSGQVYRQRRK [TH_Y230_D227G] was run?
Its phosphorylation enrichment is 0.855.

With IGLHAYGDQFR [IDH1_Y135_R132L_YF] as the sequence, how does the phosphorylation enrichment read?
Its phosphorylation enrichment is 0.687.

MIHSAYALGGL [CPS1_Y590_R587H] was tested. Which phosphorylation enrichment did it give?
Its phosphorylation enrichment is 0.53.

FGVVGYLAIMF [RNF175_Y155] was tested. Which phosphorylation enrichment did it give?
The phosphorylation enrichment was 1.04.

With NVGGKYSFLKV [GRM3_Y478_YF] as the sequence, how does the phosphorylation enrichment read?
Its phosphorylation enrichment is 0.608.

For DASAVYLRDFQ [PLCG2_Y242_H244R], which phosphorylation enrichment is on record?
Its phosphorylation enrichment is 0.769.

For DFPIGYPSFLA [TBCK_Y153_YF], which phosphorylation enrichment is on record?
Its phosphorylation enrichment is 0.79.

KLSFSYGWALQ [ALDOB_Y302_R304W] was tested. Which phosphorylation enrichment did it give?
Its phosphorylation enrichment is 1.52.

Which phosphorylation enrichment does the source give for RIGRKYKRVRF [F8_Y442_K444R] here?
Its phosphorylation enrichment is 2.77.

Target: EPHB2 (UniProt P29323)
Assay: as above

EPHB2, sequence (P29323 whole entry, looked up): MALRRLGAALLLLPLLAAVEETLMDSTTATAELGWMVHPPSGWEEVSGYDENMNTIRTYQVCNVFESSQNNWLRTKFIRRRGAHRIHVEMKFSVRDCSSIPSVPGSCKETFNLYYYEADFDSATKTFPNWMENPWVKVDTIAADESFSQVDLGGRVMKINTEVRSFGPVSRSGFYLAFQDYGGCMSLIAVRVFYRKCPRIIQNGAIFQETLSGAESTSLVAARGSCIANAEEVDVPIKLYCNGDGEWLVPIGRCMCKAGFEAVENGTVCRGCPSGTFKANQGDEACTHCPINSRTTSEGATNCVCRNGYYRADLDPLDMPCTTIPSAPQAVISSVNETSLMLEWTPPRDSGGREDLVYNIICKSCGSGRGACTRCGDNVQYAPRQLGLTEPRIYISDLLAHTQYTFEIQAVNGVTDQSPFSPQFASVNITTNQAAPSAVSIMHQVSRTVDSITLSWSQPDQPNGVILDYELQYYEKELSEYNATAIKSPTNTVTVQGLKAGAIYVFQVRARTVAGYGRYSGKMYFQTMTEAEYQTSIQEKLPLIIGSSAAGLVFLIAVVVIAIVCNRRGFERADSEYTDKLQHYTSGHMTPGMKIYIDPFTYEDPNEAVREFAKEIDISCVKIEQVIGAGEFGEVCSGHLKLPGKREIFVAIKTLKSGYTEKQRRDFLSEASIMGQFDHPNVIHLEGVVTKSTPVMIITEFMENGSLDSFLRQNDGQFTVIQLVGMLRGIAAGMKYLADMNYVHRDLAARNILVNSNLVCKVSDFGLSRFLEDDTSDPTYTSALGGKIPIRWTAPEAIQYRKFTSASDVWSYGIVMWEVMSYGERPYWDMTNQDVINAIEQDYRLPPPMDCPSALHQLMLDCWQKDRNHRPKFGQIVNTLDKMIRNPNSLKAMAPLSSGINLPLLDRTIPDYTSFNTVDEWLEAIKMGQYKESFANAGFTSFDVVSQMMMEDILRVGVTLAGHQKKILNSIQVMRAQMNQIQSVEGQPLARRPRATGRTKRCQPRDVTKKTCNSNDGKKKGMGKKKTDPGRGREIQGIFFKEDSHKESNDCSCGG

With AKLKDYFIFNK [CCDC42_Y149_YF] as the sequence, how does the phosphorylation enrichment read?
Its phosphorylation enrichment is 0.513.

For YTGDIYSSSNL [LZTR1_Y141_N143S], which phosphorylation enrichment is on record?
Its phosphorylation enrichment is 1.53.

With VIEQRYNETWL [SLC2A4_Y56_S55R] as the sequence, how does the phosphorylation enrichment read?
The phosphorylation enrichment was 0.519.

With GIVEDYRPRFF [ACVRL1_Y421_P424R_YF] as the sequence, how does the phosphorylation enrichment read?
The phosphorylation enrichment was 0.468.

How did the phosphorylation enrichment turn out when SILAVYSKDIY [PANK2_Y400_N404I] was run?
Its phosphorylation enrichment is 0.788.

With KCCCIYEKPRS [PPP1R11_Y64_A69S] as the sequence, how does the phosphorylation enrichment read?
Its phosphorylation enrichment is 0.892.

How did the phosphorylation enrichment turn out when YEEDSYVKRSQ [RET_Y905] was run?
The phosphorylation enrichment was 0.643.

For SAPDSYIRIGN [SLC38A4_Y27_G29R], which phosphorylation enrichment is on record?
Its phosphorylation enrichment is 0.396.

How did the phosphorylation enrichment turn out when LFSDHYSPSGR [TMPRSS12_Y23_YF] was run?
Its phosphorylation enrichment is 0.452.

CRAVKYLQMVG [AVPR2_Y117] was tested. Which phosphorylation enrichment did it give?
Its phosphorylation enrichment is 0.44.

For LAIERYVVVSK [RHO_Y136_C140S], which phosphorylation enrichment is on record?
Its phosphorylation enrichment is 3.45.

NFFEFYVDDPL [GCHFR_Y48_P53L_YF] was tested. Which phosphorylation enrichment did it give?
Its phosphorylation enrichment is 0.52.

With MFCAGYDTKQE [F10_Y407] as the sequence, how does the phosphorylation enrichment read?
Its phosphorylation enrichment is 0.805.

Which phosphorylation enrichment does the source give for FSGQVYRQRRK [TH_Y230_D227G] here?
Its phosphorylation enrichment is 0.772.

With IGLHAYGDQFR [IDH1_Y135_R132L_YF] as the sequence, how does the phosphorylation enrichment read?
The phosphorylation enrichment was 0.491.

MIHSAYALGGL [CPS1_Y590_R587H] was tested. Which phosphorylation enrichment did it give?
The phosphorylation enrichment was 0.428.

With FGVVGYLAIMF [RNF175_Y155] as the sequence, how does the phosphorylation enrichment read?
Its phosphorylation enrichment is 0.579.

NVGGKYSFLKV [GRM3_Y478_YF] was tested. Which phosphorylation enrichment did it give?
The phosphorylation enrichment was 0.378.

For DASAVYLRDFQ [PLCG2_Y242_H244R], which phosphorylation enrichment is on record?
The phosphorylation enrichment was 0.492.

Which phosphorylation enrichment does the source give for DFPIGYPSFLA [TBCK_Y153_YF] here?
The phosphorylation enrichment was 0.503.

With KLSFSYGWALQ [ALDOB_Y302_R304W] as the sequence, how does the phosphorylation enrichment read?
Its phosphorylation enrichment is 0.764.

For RIGRKYKRVRF [F8_Y442_K444R], which phosphorylation enrichment is on record?
Its phosphorylation enrichment is 1.65.
